# Changes are numbered by the printed parent chain.
# T1: recombinant human EpCAM (R&D systems, cat no 9277-EP) (human, UniProt P16422 24-265)
# T1 construct: also called human EpCAM extracellular domain
# T1 sequence: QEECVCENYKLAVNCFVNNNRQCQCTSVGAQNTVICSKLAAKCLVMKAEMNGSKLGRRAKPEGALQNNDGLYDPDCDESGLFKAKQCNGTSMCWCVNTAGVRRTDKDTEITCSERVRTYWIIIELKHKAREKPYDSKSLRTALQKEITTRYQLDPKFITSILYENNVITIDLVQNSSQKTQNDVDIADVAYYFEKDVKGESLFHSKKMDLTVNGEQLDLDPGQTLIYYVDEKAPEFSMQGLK
# T2: full length cynomolgus monkey EpCAM on CHO-S cells (cynomolgus monkey, UniProt Q1WER1 24-314 (rhesus entry))
# T2 sequence: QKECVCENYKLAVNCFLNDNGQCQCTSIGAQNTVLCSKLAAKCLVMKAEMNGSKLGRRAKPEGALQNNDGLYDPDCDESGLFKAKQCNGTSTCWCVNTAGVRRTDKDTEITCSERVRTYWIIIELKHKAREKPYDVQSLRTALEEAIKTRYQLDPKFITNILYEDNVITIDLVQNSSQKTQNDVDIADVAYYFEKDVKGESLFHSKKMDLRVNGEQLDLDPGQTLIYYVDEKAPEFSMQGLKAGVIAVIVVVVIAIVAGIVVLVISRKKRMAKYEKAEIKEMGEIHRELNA
# T3: full length mouse EpCAM on CHO-S cells (mouse, UniProt Q99JW5 24-315)
# T3 sequence: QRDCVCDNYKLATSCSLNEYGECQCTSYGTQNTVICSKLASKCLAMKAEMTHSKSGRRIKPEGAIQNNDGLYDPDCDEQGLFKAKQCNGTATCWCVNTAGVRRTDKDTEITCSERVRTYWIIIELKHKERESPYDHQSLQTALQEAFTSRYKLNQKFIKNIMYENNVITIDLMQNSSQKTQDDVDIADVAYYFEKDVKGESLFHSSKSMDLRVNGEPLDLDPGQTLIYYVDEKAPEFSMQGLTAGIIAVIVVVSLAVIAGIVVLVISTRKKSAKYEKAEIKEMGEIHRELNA
# B1: bsIgG1-EpCAM-A37-FERL/CD137-009-HC7LC2-FEAR (bispecific antibody)
# heavy 1: not shown
# light 1: EIELTQSPGTLSLSPGERATLSCRASQTISNNYLAWYQQKRGQAPRLLIYAASSRATGIPDRFSGTGSGTDFTLTISRLEPEDFAVYYCAQGELYPRQFGGGTKLEIKRTVAAPSVFIFPPSDEQLKSGTASVVCLLNNFYPREAKVQWKVDNALQSGNSQESVTEQDSKDSTYSLSSTLTLSKADYEKHKVYACEVTHQGLSSPVTKSFNRGEC
# heavy 2: EVQLVESGGGLVQPGRSLRLSCTASGFSLNDYWMSWVRQAPGKGLEWVGYIDVGGSLYYAASVKGRFTISRDDSKSIAYLQMNSLKTEDTAVYYCARGGLTYGFDLWGQGTLVTVSSASTKGPSVFPLAPSSKSTSGGTAALGCLVKDYFPEPVTVSWNSGALTSGVHTFPAVLQSSGLYSLSSVVTVPSSSLGTQTYICNVNHKPSNTKVDKRVEPKSCDKTHTCPPCPAPEFEGGPSVFLFPPKPKDTLMISRTPEVTCVVVAVSHEDPEVKFNWYVDGVEVHNAKTKPREEQYNSTYRVVSVLTVLHQDWLNGKEYKCKVSNKALPAPIEKTISKAKGQPREPQVYTLPPSREEMTKNQVSLTCLVKGFYPSDIAVEWESNGQPENNYKTTPPVLDSDGSFFLYSRLTVDKSRWQQGNVFSCSVMHEALHNHYTQKSLSLSPG
# light 2: DIVMTQSPSSLSASVGDRVTITCQASEDISSYLAWYQQKPGKAPKRLIYGASDLASGVPSRFSASGSGTDYTFTISSLQPEDIATYYCHYYATISGLGVAFGGGTKVEIKRTVAAPSVFIFPPSDEQLKSGTASVVCLLNNFYPREAKVQWKVDNALQSGNSQESVTEQDSKDSTYSLSSTLTLSKADYEKHKVYACEVTHQGLSSPVTKSFNRGEC
# B2: IgG1-EpCAM-323-A3-FEAR (antibody)
# heavy: QIQLVQSGPELKKPGETVKISCKASGYTFTNYGMNWVRQASGEGLKWMGWINTYTGEPTYGEDFKGRFAFSLETSASTAYLQINNLKNEDTATYFCARFGNYVDYWGQGTTLTVSSASTKGPSVFPLAPSSKSTSGGTAALGCLVKDYFPEPVTVSWNSGALTSGVHTFPAVLQSSGLYSLSSVVTVPSSSLGTQTYICNVNHKPSNTKVDKRVEPKSCDKTHTCPPCPAPEFEGGPSVFLFPPKPKDTLMISRTPEVTCVVVAVSHEDPEVKFNWYVDGVEVHNAKTKPREEQYNSTYRVVSVLTVLHQDWLNGKEYKCKVSNKALPAPIEKTISKAKGQPREPQVYTLPPSREEMTKNQVSLTCLVKGFYPSDIAVEWESNGQPENNYKTTPPVLDSDGSFFLYSRLTVDKSRWQQGNVFSCSVMHEALHNHYTQKSLSLSPG
# light: DIVMTQAAFSNPVTLGTSASISCRSSKNLLHSNGITYLYWYLQKPGQSPHLLIYQMSNLASGVPDRFSSSGSGTDFTLRISRVEAEDVGVYYCAQNLEIPRTFGGGTKLEIKRTVAAPSVFIFPPSDEQLKSGTASVVCLLNNFYPREAKVQWKVDNALQSGNSQESVTEQDSKDSTYSLSSTLTLSKADYEKHKVYACEVTHQGLSSPVTKSFNRGEC
# notes: also called IgG1-323-A3-FEAR
# B3: IgG1-EpCAM-323-A3 (antibody)
# heavy: not shown
# light: B2 light
# notes: Unmodified IgG1 constant region
# B4: IgG1-EpCAM-A37-FEAR (antibody)
# heavy: not shown
# light: B1 light 1
# B5: IgG1-EpCAM-C52-FEAR (antibody, V domains shown)
# VH: QVQLVQSGAEVKKPGASVKVSCKASGGTFSSYAISWVRQAPGQGLEWMGGIVPIFGTANYAQKFQGRVTITADESTSTAYMELSSLRSEDTAVYYCARDPFLHYWGQGTLVTVSS
# VL: EIELTQSPGTLSLSPGERATLSCRASQSVSSSYLAWYQQKPGQAPRLLIYGASSRATGIPDRFSGSGSGTDFTLTISRLEPEDFAVYYCAQGELYPRQFGGGTKLDIKR
# notes: The running text prints C52 as 052; also called IgG1-EpCAM-052-FEAR
# B6: IgG1-EpCAM-UBS-54-FEAR (antibody, V domains shown)
# VH: B5 VH with A16S, K19R, V52I
# VL: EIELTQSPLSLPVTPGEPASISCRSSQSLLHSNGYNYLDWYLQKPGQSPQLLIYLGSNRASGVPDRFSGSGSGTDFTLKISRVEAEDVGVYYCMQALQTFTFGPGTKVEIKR
# B7: bsIgG1-CD137-009-HC7LC2-FEAL/EpCAM-A37-FEAR (bispecific antibody)
# heavy 1: B1 heavy 2 with F405L, R409K
# light 1: B1 light 2
# heavy 2: not shown
# light 2: B1 light 1
# What was measured:
# FcγRIa = target: T4, FcγRIa (human, UniProt P12314 16-288, limits assumed, biotinylated); test: SPR (Biacore 8K); His-tagged FcγR captured on anti-His chip
# T4 construct: Bought His-tagged protein captured on anti-His chip; also called CD64 Protein, Human, Recombinant (His Tag), Biotinylated
# T4 sequence (P12314 16-288 limits assumed): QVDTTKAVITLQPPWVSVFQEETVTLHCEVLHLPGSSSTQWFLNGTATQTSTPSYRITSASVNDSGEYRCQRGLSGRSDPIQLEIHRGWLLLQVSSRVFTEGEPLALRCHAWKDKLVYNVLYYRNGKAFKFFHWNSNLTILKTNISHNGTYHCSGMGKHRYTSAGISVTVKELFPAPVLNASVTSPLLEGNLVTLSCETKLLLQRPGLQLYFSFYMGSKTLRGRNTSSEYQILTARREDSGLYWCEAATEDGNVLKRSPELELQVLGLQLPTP
# Protocol: (§1) At the end of each cycle, the surface was regenerated using 10 mM Glycine-HCl pH 1.5 (Cytiva, cat. no. BR100354).
# FcγRIIIa-V158 = target: T5, FcγRIIIa-V158 (human, UniProt P08637 17-208); test: as above
# T5 construct: Bought His-tagged protein
# T5 sequence (P08637 17-208 F176V limits assumed): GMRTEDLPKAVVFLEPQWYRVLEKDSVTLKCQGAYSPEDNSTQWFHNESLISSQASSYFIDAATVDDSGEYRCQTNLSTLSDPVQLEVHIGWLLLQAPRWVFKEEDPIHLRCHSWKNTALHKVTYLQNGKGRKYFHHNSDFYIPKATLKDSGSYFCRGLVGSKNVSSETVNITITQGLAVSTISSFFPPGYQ
# Protocol: as §1
# FcγRIIIa-F158 = target: T6, FcγRIIIa-F158 (human, UniProt P08637 17-208); test: as above
# T6 construct: extracellular domain; Bought His-tagged protein
# T6 sequence (P08637 17-208): as the sequence (P08637 17-208 F176V limits assumed) above, with V160F counted along it
# Protocol: as §1
# [1] = target: human 4-1BB (CD137) on cells (human, UniProt Q07011 24-255); test: cell-based or functional assay
# human 4-1BB (CD137) on cells, sequence (Q07011 24-255): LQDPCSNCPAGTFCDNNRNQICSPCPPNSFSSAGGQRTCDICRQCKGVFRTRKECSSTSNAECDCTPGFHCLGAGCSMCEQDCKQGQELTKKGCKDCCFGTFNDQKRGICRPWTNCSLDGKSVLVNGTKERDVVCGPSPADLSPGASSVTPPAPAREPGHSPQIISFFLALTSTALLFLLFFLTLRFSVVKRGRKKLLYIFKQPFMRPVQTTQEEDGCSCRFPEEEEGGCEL
# [2] = target: T1, recombinant human EpCAM (R&D systems, …); test: BLI classical sandwich cross-block; human EpCAM held by immobilized first antibody IgG1-EpCAM-323-A3-FEAR (competitor); second antibody 10 µg/mL in solution
# Protocol: (§2) The theoretical molecular mass of human EpCAM based on the amino acid sequence (28 kDa) was used for calculations. The association (300 s) of a second EpCAM antibody (10 μg/mL in Sample Diluent) was determined. Data were acquired using Data Acquisition Software v12.0.1.8 (FortéBio) and analyzed with Data Analysis HT Software v12.0.1.55 (FortéBio). Data traces were corrected by subtraction of a reference curve (Sample Diluent instead of second antibody) in order to correct for the dissociation of human EpCAM from the immobilized first antibody. The Y-axis was aligned to the start of the association step and Savitzky-Golay filtering was applied. The corrected association responses of the second antibodies were plotted in a matrix format. […] By contrast, responses between −0.1 and 0.1 nm were considered to be blocking antibody pairs.
# [3] = target: T1, recombinant human EpCAM (R&D systems, …); test: BLI classical sandwich cross-block; human EpCAM held by immobilized first antibody IgG1-EpCAM-A37-FEAR (competitor); second antibody 10 µg/mL in solution
# Protocol: as §2
# [4] = target: T1, recombinant human EpCAM (R&D systems, …); test: BLI classical sandwich cross-block; human EpCAM held by immobilized first antibody IgG1-EpCAM-UBS-54-FEAR (competitor); second antibody 10 µg/mL in solution
# Protocol: as §2
# [5] = target: T1, recombinant human EpCAM (R&D systems, …); test: BLI classical sandwich cross-block; human EpCAM held by immobilized first antibody IgG1-EpCAM-C52-FEAR (competitor); second antibody 10 µg/mL in solution
# Protocol: as §2
# [6] = target: T2, full length cynomolgus monkey EpCAM on …; test: flow cytometry on CHO-S cells transfected with cynomolgus monkey EpCAM
# Protocol: (§3) Binding of EpCAM antibodies to CHO-S cells transiently transfected with full length human, cynomolgus monkey or mouse EpCAM was analyzed by flow cytometry. […] Cells were washed twice in FACS buffer, re-suspended in 20 μL FACS buffer supplemented with TO-PRO™-3 Iodide (diluted 1:20000; Invitrogen, cat. no. T3605) and analyzed on an iQue screener (Intellicyt Corporation, USA). Binding curves were analyzed by non-linear regression (sigmoidal dose-response with variable slope) using GraphPad Prism V8.4.1 software (GraphPad Software, San Diego, CA, USA).
# [7] = target: T3, full length mouse EpCAM on CHO-S cells; test: flow cytometry on CHO-S cells transfected with mouse EpCAM
# Protocol: as §3
Binder,corrected association response of the antibody in solution [2],corrected association response of the antibody in solution [3],corrected association response of the antibody in solution [4],corrected association response of the antibody in solution [5],binding result [6],binding result [7],further results
B1,–,–,–,–,–,–,"binding result (FcγRIa): no binding (tested: 3,000 nM (highest concentration tested)); binding result (FcγRIIIa-V158): no binding (tested: 10,000 nM (highest concentration tested)); binding result (FcγRIIIa-F158): no binding (tested: 10,000 nM (highest concentration tested)); EC50 CD107a GMFI (donor 1) [1]: 0.0503 µg/mL; EC50 CD107a GMFI (donor 2) [1]: 0.03 µg/mL; EC50 CD107a GMFI (donor 3) [1]: 0.0217 µg/mL; EC50 CD107a GMFI (donor 4) [1]: 0.012 µg/mL; EC50 CD107a GMFI (donor 6) [1]: 0.021 µg/mL; EC50 GzmB GMFI (donor 1) [1]: 0.0179 µg/mL; EC50 GzmB GMFI (donor 2) [1]: 0.0176 µg/mL; EC50 GzmB GMFI (donor 3) [1]: 0.0204 µg/mL; EC50 GzmB GMFI (donor 4) [1]: 0.0121 µg/mL; EC50 GzmB GMFI (donor 5) [1]: 0.0201 µg/mL; EC50 GzmB GMFI (donor 6) [1]: 0.0224 µg/mL"
B2,0 nm,-0.02 nm,-0.01 nm,-0.02 nm,–,–,–
B3,–,–,–,–,binds,binds,–
B4,-0.01 nm,-0.04 nm,0 nm,0 nm,binds,binds,–
B5,-0.01 nm,-0.03 nm,0 nm,-0.02 nm,binds,binds,–
B6,0 nm,-0.03 nm,-0.02 nm,-0.01 nm,binds,binds,–
B7,–,–,–,–,–,–,"binding result (FcγRIa): no binding (tested: 3,000 nM (highest concentration tested)); binding result (FcγRIIIa-V158): no binding (tested: 10,000 nM (highest concentration tested)); binding result (FcγRIIIa-F158): no binding (tested: 10,000 nM (highest concentration tested))"
